Data set [1] can be described thus: Metabolites in the urine. In kind it is in vivo, rats. As to conditions: urine at 2 and 4 h p.i. The procedure: Metabolites in the Urine.
At 2 and 4 h p.i. the urine was collected directly from the bladder and analyzed by HPLC (FIG. 12).

Data set [2] can be described thus: Challenge reactions (transchelation) with excess Cys, GSH or EDTA, RCP by HPLC. As to conditions: Cys 10 mM; for % RCP after incubation with excess Cys: 37° C. In kind it is physicochemical. The procedure:
The transchelation studies were performed for some compounds monitoring by HPLC the radiochemical purity (RCP) of the complexes in presence of an excess of exchanging ligands over the time. The experiments were performed in triplicate.
Challenge experiments were carried out on the purified [^99mTc(N)(PNP3OH)]-labeled small size compounds (complex 1, complex 2, complex 9 and complex 10) using an excess of glutathione (GSH) or Cys. An aliquot (50 μl) of an aqueous stock solution of cysteine hydrochloride (10 mM; 1 mM) was added to a propylene test tube containing PB (250 μl, 0.2 M; pH 7.4), water (100 μl) and the selected [^99mTc(N)(PNP3OH)]-compound (100 μl). The mixture was vortexed and incubated at 37° C. for 24 h. A control reaction containing an equal volume of water, instead of cysteine hydrochloride, was studied in parallel. At 30 min, 1, 3 and 24 h, aliquots of the reaction mixture were withdrawn and analyzed by HPLC chromatography. A similar procedure was applied using GSH (50 μl, 10 mM) as challenge ligand.
For [^99mTc(N)(PNP3OH)(Cys-Gly-Lys-Gly-ApoMb)]^+ (“Cys-Gly-Lys-Gly” disclosed as SEQ ID NO: 1) additional experiments were conducted using EDTA (50 μl, 10 mM) as exchanging ligand.

Data set [3] deals with αvβ3 positive M21 and αvβ3 negative M21L cell lines. The experiment in a line: Cell uptake and internalization. In kind it is cell-based, human. As to conditions: M21 and M21L cells, 37° C., 90 min. The method, then: Cell Studies of complex 9 were conducted on M21 and M21L cells grown in RPMI1640 (Gibco Life Technologies). Expression of αvβ3 and of αvβ5 in the cells lines was analyzed by flow cytometry.
Cellular uptakes of the radiolabeled peptide, were assessed in suspension at 37° C. in human melanoma αvβ3 positive M21 and negative M21L cell lines. Preliminary studies were performed in order to set the experimental conditions to avoid cell damage and/or death during uptake experiments. […] Afterward, 1 ml of the cell suspension (1×10^6 cells/ml) was incubated with intermittent agitation with 10 μCi (10 μL) of ^99mTc complexes. At 90 min, the tubes were vortexed, the cells were transferred in Eppendorf microcentrifuge tube (1.5 ml) and the incubation was interrupted by centrifugation (3000 rpm for 5 min at 10° C.). […] After centrifugation (3000 rpm for 10 min at 10° C.) the supernatant was separated from the pellet, each fraction was collected, placed in a separated counting tube and the activity was determined using a counter (Cobra II, Packard) to determinate both the cell uptake and internalized fraction.
The uptake of complexes is expressed as percentage cell uptake of the total activity on 10^6 cells (% cell uptake/10^6 cells). […]

As for “[^99mTc(N)(PNP3OH)(Cys-cRGDfK)]^+ [Complex 9]”, in data set [1], the “In vivo metabolism (urine HPLC, FIG. 12)” value is listed as “remained stably incorporated into the structure of the final complex”. Further, the “% RCP after incubation with excess Cys” value turned out to be 75.93% in data set [2] (3 h) and 27.31% in data set [2] (24 h). For the same substance, the “Stability toward Cys transchelation relative to neutral complexes” value in data set [2] (versus complex 1 and complex 11) was “higher stability toward Cys transchelation”. Besides, the “Recognition by molecular target (cellular uptake, FIG. 10)” value in data set [3] is on record as “recognized by the corresponding molecular target”.

The record behind these values is patent US11160886B2, “Method for labeling of sensitive and thermosensitive targeting biomolecules with technetium based compounds” (BRACCO IMAGING SPA, priority 2016, dated 2021).
